From patent publication US20200216522A1 (DENALI THERAPEUTICS, published 2020)

T1: Peptide_055 (human)
T1 peptide: GGGKVQIINKKLDLS

T2: Peptide_036 (human)
T2 peptide: PPAPKTPPSSGEPPK

T3: Peptide_065 (human)
T3 peptide: KCGSLGNIHHKPGGG

T4: Peptide_041 (human)
T4 peptide: GSPGTPGSRSRTPSL

T5: Peptide_058 (human)
T5 peptide: NVQSKCGSKDNIKHV

T6: Peptide_070 (human)
T6 peptide: FKDRVQSKIGSLDNI

T7: Peptide_015 (human)
T7 peptide: TAEDVTAPLVDEGAP

T8: Peptide_078 (human)
T8 peptide: TDHGAEIVYKSPVVS

T9: Peptide_019 (human)
T9 peptide: AQPHTEIPEGTTAEE

T10: Peptide_039 (human)
T10 peptide: SGDRSGYSSPGSPGT

T11: Peptide_022 (human)
T11 peptide: AGIGDTPSLEDEAAG

T12: Peptide_057 (human)
T12 peptide: KLDLSNVQSKCGSKD

T13: Peptide_085 (human)
T13 peptide: DSPQLATLADEVSAS

T14: Peptide_018 (human)
T14 peptide: GKQAAAQPHTEIPEG

T15: Peptide_007 (human)
T15 peptide: MHQDQEGDTDAGLKE

T16: Peptide_024 (human)
T16 peptide: DEAAGHVTQARMVSK

T17: Peptide_040 (human)
T17 peptide: GYSSPGSPGTPGSRS

T18: Peptide_079 (human)
T18 peptide: EIVYKSPVVSGDTSP

T19: Peptide_056 (human)
T19 peptide: QIINKKLDLSNVQSK

T20: Peptide_002 (human)
T20 peptide: QEFEVMEDHAGTYGL

T21: Peptide_053 (human)
T21 peptide: GSTENLKHQPGGGKV

T22: Peptide_050 (human)
T22 peptide: APVPMPDLKNVKSKI

T23: Peptide_004 (human)
T23 peptide: GTYGLGDRKDQGGYT

T24: Peptide_009 (human)
T24 peptide: AGLKESPLQTPTEDG

T25: Peptide_020 (human)
T25 peptide: EIPEGTTAEEAGIGD

T26: Peptide_073 (human)
T26 peptide: THVPGGGNKKIETHK

T27: Peptide_083 (human)
T27 peptide: VSSTGSIDMVDSPQL

T28: Peptide_017 (human)
T28 peptide: DEGAPGKQAAAQPHT

T29: Peptide_049 (human)
T29 peptide: SRLQTAPVPMPDLKN

T30: Peptide_052 (human)
T30 peptide: VKSKIGSTENLKHQP

T31: Peptide_051 (human)
T31 peptide: PDLKNVKSKIGSTEN

T32: Peptide_084 (human)
T32 peptide: SIDMVDSPQLATLAD

T33: Peptide_043 (human)
T33 peptide: RTPSLPTPPTREPKK

T34: Peptide_027 (human)
T34 peptide: SKDGTGSDDKKAKGA

T35: Peptide_068 (human)
T35 peptide: QVEVKSEKLDFKDRV

B1: chimeric IgG clone 1A5 (antibody, V domains shown)
VH: EVQLQQSGAELVRPGASVKLSCTASGFNIKDSLIHWVKQRPEQGLEWIGWIDPEDGETKYAPKFQDKATKTADTSSNTAYLQLSSLTSEDTAIYYCASGEWDYWGQGTSVTVSS
VL: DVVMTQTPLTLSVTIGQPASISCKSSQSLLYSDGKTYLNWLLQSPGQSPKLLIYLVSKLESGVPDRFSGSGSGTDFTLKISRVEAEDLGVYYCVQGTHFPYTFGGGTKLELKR
notes: mouse-human chimeric IgG from HEK293
B2: chimeric IgG clone 1A1 (antibody, V domains shown)
VH: EVQLQQSGAELVRPGASVRLSCTASGFNIKDSLMHWLKQRPEQGLEWIGWIDPEDGETKYAPKFQDKATITADTSSNTAYLQLSSLTSEDTAIYYCTRRDWEGPWGQGTLVTVSA
VL: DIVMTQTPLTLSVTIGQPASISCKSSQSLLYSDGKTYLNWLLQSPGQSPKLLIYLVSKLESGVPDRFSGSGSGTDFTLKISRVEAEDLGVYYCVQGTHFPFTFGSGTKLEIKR
notes: mouse-human chimeric IgG from HEK293; also called anti-Tau 1A1; anti-Tau^1A1

Columns and labels:
Assay in all cases: peptide array
Peptide_055 = target: T1, Peptide_055
Procedure: (§1) Chimeric IgG antibodies were diluted to a concentration of 5 μg/mL in 3% bovine serum albumin in Tris-buffered saline (10 mM Tris, pH 7.5, 150 mM NaCl) supplemented with 0.05% Tween®20 (3% BSA-TBST). Diluted antibodies were allowed to bind to peptides printed onto slides for 2 hours at room temperature as described in the PepStar™ user manual (JPT Technologies). Following extensive washing (5×5 minutes with TBST), slides were incubated with secondary antibodies goat anti-human IgG, Alexa Fluor 568 conjugate, 1 μg/mL in 3% BSA-TBST) for 1 hour at room temperature. After extensive washing, (5×5 minutes with TBST, then 5×5 minutes with ultrapure water), slides were dried overnight and imaged using an Opera Phenix™ system in the 568 nm channel. Images were aligned to peptide array definition files using Galviewer software obtained from JPT Technologies and ImageJ software with control human IgG serving as landmarks.
(§2) Full-length human Tau (encoded by the microtubule-associated protein Tau isoform 2 gene (MAPT), amino acid sequence NCBI Reference Sequence No. NP_005901.2, SEQ ID NO: 1, variant designation “2N4R”) was divided into 15 amino acid peptides, offset by 5 amino acids (overlapping by 10 amino acids). Peptides were synthesized and covalently attached to silica slides in triplicate with a spot size of 0.5 mm (obtained from JPT Technologies, Berlin, Germany). Antibodies muIgG were diluted to a concentration of 30 μg/mL in 3% bovine serum albumin in Tris-buffered saline (10 mM Tris, pH 7.5, 150 mM NaCl) supplemented with 0.05% Tween® 20 (3% BSA-TBST). Diluted antibodies were allowed to bind to peptides printed onto slides for 2 hours at room temperature as described in the Pepstar™ user manual (JPT Technologies). Following extensive washing (5×5 min TBST), slides were incubated with secondary antibodies (donkey anti-mouse IgG, Alexafluor 647 conjugate, 5 μg/mL in 3% BSA-TBST) for 1 hour at room temperature. After extensive washing, (5×5 minutes TBST, 5×5 minutes ultrapure water), slides were dried under a stream of nitrogen and imaged on the Opera Phenix in the 647 nm channel. Images were aligned to peptide array definition file using Galviewer software obtained from JPT Technologies and ImageJ software with control mouse IgG serving as landmarks.

Peptide_036 = target: T2, Peptide_036
Procedure: as §1, §2

Peptide_065 = target: T3, Peptide_065
Procedure: as §1, §2

Peptide_041 = target: T4, Peptide_041
Procedure: as §1, §2

Peptide_058 = target: T5, Peptide_058
Procedure: as §1, §2

Peptide_070 = target: T6, Peptide_070
Procedure: as §1, §2

Peptide_015 = target: T7, Peptide_015
Procedure: as §1, §2

Peptide_078 = target: T8, Peptide_078
Procedure: as §1, §2

Peptide_019 = target: T9, Peptide_019
Procedure: as §1, §2

Peptide_039 = target: T10, Peptide_039
Procedure: as §1, §2

Peptide_022 = target: T11, Peptide_022
Procedure: as §1, §2

Peptide_057 = target: T12, Peptide_057
Procedure: as §1, §2

Peptide_085 = target: T13, Peptide_085
Procedure: as §1, §2

Peptide_018 = target: T14, Peptide_018
Procedure: as §1, §2

Peptide_007 = target: T15, Peptide_007
Procedure: as §1, §2

Peptide_024 = target: T16, Peptide_024
Procedure: as §1, §2

Peptide_040 = target: T17, Peptide_040
Procedure: as §1, §2

Peptide_079 = target: T18, Peptide_079
Procedure: as §1, §2

Peptide_056 = target: T19, Peptide_056
Procedure: as §1, §2

Peptide_002 = target: T20, Peptide_002
Procedure: as §1, §2

Peptide_053 = target: T21, Peptide_053
Procedure: as §1, §2

Peptide_050 = target: T22, Peptide_050
Procedure: as §1, §2

Peptide_004 = target: T23, Peptide_004
Procedure: as §1, §2

Peptide_009 = target: T24, Peptide_009
Procedure: as §1, §2

Peptide_020 = target: T25, Peptide_020
Procedure: as §1, §2

Peptide_073 = target: T26, Peptide_073
Procedure: as §1, §2

Peptide_083 = target: T27, Peptide_083
Procedure: as §1, §2

Peptide_017 = target: T28, Peptide_017
Procedure: as §1, §2

Peptide_049 = target: T29, Peptide_049
Procedure: as §1, §2

Peptide_052 = target: T30, Peptide_052
Procedure: as §1, §2

Peptide_051 = target: T31, Peptide_051
Procedure: as §1, §2

Peptide_084 = target: T32, Peptide_084
Procedure: as §1, §2

Peptide_043 = target: T33, Peptide_043
Procedure: as §1, §2

Peptide_027 = target: T34, Peptide_027
Procedure: as §1, §2

Peptide_068 = target: T35, Peptide_068
Procedure: as §1, §2

Binder | binding result (Peptide_055) | binding result (Peptide_036) | binding result (Peptide_065) | binding result (Peptide_041) | binding result (Peptide_058) | binding result (Peptide_070) | binding result (Peptide_015) | binding result (Peptide_078) | binding result (Peptide_019) | binding result (Peptide_039) | binding result (Peptide_022) | binding result (Peptide_057) | binding result (Peptide_085) | binding result (Peptide_018) | binding result (Peptide_007) | binding result (Peptide_024) | binding result (Peptide_040) | binding result (Peptide_079) | binding result (Peptide_056) | binding result (Peptide_002) | also measured
B1 | no binding (tested: 5 ug/mL) | no binding (tested: 5 ug/mL) | no binding (tested: 5 ug/mL) | no binding (tested: 5 ug/mL) | no binding (tested: 5 ug/mL) | binds | no binding (tested: 5 ug/mL) | no binding (tested: 5 ug/mL) | no binding (tested: 5 ug/mL) | no binding (tested: 5 ug/mL) | no binding (tested: 5 ug/mL) | no binding (tested: 5 ug/mL) | no binding (tested: 5 ug/mL) | no binding (tested: 5 ug/mL) | no binding (tested: 5 ug/mL) | no binding (tested: 5 ug/mL) | no binding (tested: 5 ug/mL) | no binding (tested: 5 ug/mL) | no binding (tested: 5 ug/mL) | no binding (tested: 5 ug/mL) | binding result (Peptide_053): no binding (tested: 5 ug/mL); binding result (Peptide_050): no binding (tested: 5 ug/mL); binding result (Peptide_004): no binding (tested: 5 ug/mL); binding result (Peptide_009): no binding (tested: 5 ug/mL); binding result (Peptide_020): no binding (tested: 5 ug/mL); binding result (Peptide_073): no binding (tested: 5 ug/mL); binding result (Peptide_083): no binding (tested: 5 ug/mL); binding result (Peptide_017): no binding (tested: 5 ug/mL); binding result (Peptide_049): no binding (tested: 5 ug/mL); binding result (Peptide_052): binds; binding result (Peptide_051): binds; binding result (Peptide_084): no binding (tested: 5 ug/mL); binding result (Peptide_043): no binding (tested: 5 ug/mL); binding result (Peptide_027): no binding (tested: 5 ug/mL); binding result (Peptide_068): no binding (tested: 5 ug/mL)
B2 | no binding (tested: 5 ug/mL) | no binding (tested: 5 ug/mL) | no binding (tested: 5 ug/mL) | no binding (tested: 5 ug/mL) | no binding (tested: 5 ug/mL) | binds | no binding (tested: 5 ug/mL) | no binding (tested: 5 ug/mL) | no binding (tested: 5 ug/mL) | no binding (tested: 5 ug/mL) | no binding (tested: 5 ug/mL) | no binding (tested: 5 ug/mL) | no binding (tested: 5 ug/mL) | no binding (tested: 5 ug/mL) | no binding (tested: 5 ug/mL) | no binding (tested: 5 ug/mL) | no binding (tested: 5 ug/mL) | no binding (tested: 5 ug/mL) | no binding (tested: 5 ug/mL) | no binding (tested: 5 ug/mL) | binding result (Peptide_053): no binding (tested: 5 ug/mL); binding result (Peptide_050): no binding (tested: 5 ug/mL); binding result (Peptide_004): no binding (tested: 5 ug/mL); binding result (Peptide_009): no binding (tested: 5 ug/mL); binding result (Peptide_020): no binding (tested: 5 ug/mL); binding result (Peptide_073): no binding (tested: 5 ug/mL); binding result (Peptide_083): no binding (tested: 5 ug/mL); binding result (Peptide_017): no binding (tested: 5 ug/mL); binding result (Peptide_049): no binding (tested: 5 ug/mL); binding result (Peptide_052): binds; binding result (Peptide_051): binds; binding result (Peptide_084): no binding (tested: 5 ug/mL); binding result (Peptide_043): no binding (tested: 5 ug/mL); binding result (Peptide_027): no binding (tested: 5 ug/mL); binding result (Peptide_068): no binding (tested: 5 ug/mL)
